Measurements: PMC3876883

Columns and labels:
Experiment in all cases: single-particle photobleaching
[1] = target: K2P9–WT, tandem subunit of K2P9 and wild-type K2P1 (human) (UniProt Q9NPC2)
[2] = target: WT–K2P9, tandem subunit of wild-type K2P1 and K2P9 (human) (UniProt O00180)
[3] = target: K2P3–WT, tandem subunit of K2P3 and wild-type K2P1 (human) (UniProt O14649)
[4] = target: WT–K2P3, tandem subunit of wild-type K2P1 and K2P3 (human) (UniProt O00180)

Chain of UniProt O14649 (O14649 whole entry, looked up, tested part not stated): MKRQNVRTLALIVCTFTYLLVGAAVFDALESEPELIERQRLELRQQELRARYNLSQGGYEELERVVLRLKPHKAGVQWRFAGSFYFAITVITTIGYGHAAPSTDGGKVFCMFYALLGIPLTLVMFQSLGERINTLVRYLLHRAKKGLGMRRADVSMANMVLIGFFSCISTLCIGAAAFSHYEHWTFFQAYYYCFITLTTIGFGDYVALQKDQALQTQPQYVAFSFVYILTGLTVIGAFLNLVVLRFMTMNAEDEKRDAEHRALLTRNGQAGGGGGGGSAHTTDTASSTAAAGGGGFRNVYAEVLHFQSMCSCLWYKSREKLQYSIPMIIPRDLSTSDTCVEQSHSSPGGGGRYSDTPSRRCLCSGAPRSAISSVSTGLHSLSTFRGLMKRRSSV
Chain of UniProt Q9NPC2 (Q9NPC2 whole entry, looked up, tested part not stated): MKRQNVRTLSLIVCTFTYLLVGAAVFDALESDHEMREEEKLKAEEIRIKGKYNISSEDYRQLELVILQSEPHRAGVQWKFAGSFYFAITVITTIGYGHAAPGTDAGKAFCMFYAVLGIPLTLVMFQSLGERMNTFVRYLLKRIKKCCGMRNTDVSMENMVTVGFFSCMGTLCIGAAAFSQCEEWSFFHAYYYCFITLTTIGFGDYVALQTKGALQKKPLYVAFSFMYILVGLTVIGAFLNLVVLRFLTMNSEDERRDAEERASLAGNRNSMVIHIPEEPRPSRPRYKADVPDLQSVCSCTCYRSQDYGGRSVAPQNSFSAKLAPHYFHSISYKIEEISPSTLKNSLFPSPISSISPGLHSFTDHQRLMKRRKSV

- stoichiometry N (SUMO1 per channel) [1]: 1
- stoichiometry N (bleaching step per particle) [2]: 1
- stoichiometry N (SUMO1 per channel) [3]: 1
- stoichiometry N (bleaching step per particle) [4]: 1
Substance: GFP-SUMO1 (from UniProt P63165 1-97) (natural protein)
